Data on three molecules can be found in paper PMC6817665 (iScience, 2019).

The target of one data set is M1 (linear) GST-Ub2 (UniProt P0CG48). The data set can be described thus: BLI. (BLI is a label-free optical method that tracks binding on a fibre tip over time.)
The data set “SEC-MALS” deals with the molecule itself. The data set can be described thus: SEC-MALS. (In general: SEC sorts molecules by how far they enter the pores of the column.)

Several values for one entry are separate records, joined by “and”; a condition that tells them apart may be missing. Equal values may be shown once.

In the case of ESLVECPKCNIQYPATEHRDLLVHVEYCSK [Strep-tag II CEP55 ZF (StrepII-tag version of CEP55 ZF peptide, residues 435–464)], the Kd in the data set with M1 (linear) GST-Ub2 amounted to 1.6 µM.

Turning to ESLVECPKCNIQYPATEHRDLLVHVAYCSK [StrepII-tag version of CEP55 ZF mutant E460A], in the data set with M1 (linear) GST-Ub2, the “fold reduction of binding affinity against WT” value was 26 fold.

B1: CEP55 His-NOA (His-tag version of the human CEP55 NOA fragment, residues 304–396) (domain or fragment)
chain: IQKLREENDIARGKLEEEKKRSEELLSQVQFLYTSLLKQQEEQTRVALLEQQMQACTLDFENEKLDRQHVQHQLHVILKELRKARNQITQLES
Regarding B1, in the data set “SEC-MALS”, the “fold weaker dimerization affinity than NEMO NOA” value came to 6 fold; the “stoichiometry N” value was 2 and 6.

As usually defined, the Kd is the free concentration of one partner at which half of the binding sites on the other are occupied at equilibrium, for simple one-to-one binding. A lower Kd goes with tighter binding. The term stoichiometry N denotes a count of units in the complex or per binding partner.
